Experimental data reported in the DeepSol protein solubility set.

assay: soluble on expression in E. coli; label from the status in PepcDB or PDB records

| Sequence | soluble on expression in E. coli |
| --- | --- |
| MGSDKIHHHHHHMSSCGKNENPQEMNRRKFLKVFGGGAVASSAALYGCAPKNEPGAAVALGEVPTDKMTYRQHPTNGDKVSILGYGCMRWPLKQGSDGKDQIDQEAVNRLVDYAIEHGVNYFDTSPVYVQGMSEKATGIALARHPRNSYYLATKLSNFQNYTRENSLAMYRQSFRDLQTDYLDYYLLHSIGGGNGIELFNDRYINNGMLDFLVKEREAGRIRNLGWSFHGDVKVFDYVLDMGVKWDFVQIQLNYLDWKHASGRNVNADYLYGELEKRGIPAVIMEPLLGGRLSNVPDHIVARLKQQRPENSVASWAFRFAGSPDGVLTVLSGMTYMEHLQDNIRTYSPLIPVTDEEKDFLEETAQLMMKYPTIPCNDCKYCMPCPYALDIPGILLHYNKCVNEGNVPKSAQDENYAKARRAFLVGYDRSVPKLRQANHCTGCEQCNPHCPQGIDIPKEMQRIDKFVEELKVNG | not soluble |
| MIVTSLEDLRSRLRAYVSENGLRHTPERYSILEVAYNLKKIFTPDDLFDLTRENGLPVSLSTVYNTLTLLERCGIVLRLPSPETKYQYLMASFAEQCPLLFCTECAQFSTYYRRNVKSILADKDLRPPRFSYRQAIICLYGICDKCRKKQSALKKAADKAAPKKKK | not soluble |
| MNDYTQQLQGKKDYLKTLFAGLDVPEWEVYESPDKHYRMRAEFRIWHEGGEMFYAMFEKGQKASGASMIRCDRFEAASEAVNRLMPELIAAAAQSPELKKRWYAVEFLSTLSGEMLVTMIYHKRLDAEWMQAAQALQQQLDISVIGRSRGQKIVLKQDYVTETLKVGNRDFRYRQIEGS | not soluble |
| MGSDKIHHHHHHMAKYPNTFHRASLMKQMTFADAEYAGKRKHTRRERFLIEMDQVVPWKGLIALIEPHYPKGEGGRPAYPLMAMLRIHLMQNWFGYSDPAMEEALYETTILRQFAGLSLDRIADETTILNFRRLLEKHELAGGILQVINGYLGDRGLMLRQGTVVDATIIHAPSSTKNKDGKRDPEMHQTKKGNQYFFGMKAHIGVDAESGLVHSLVGTAANVADVTQVDQLLHGEETYVSGDAGYTGVDKRAEHQDRQMIWSIAARPSRYKKHGEKSLIARVYRKIEFTKAQLRAKVEHPFRVIKRQFGYTKVRFRGLAKNTAQQATLFALSNLWMVRKRLLAMGEVRL | not soluble |
| MNPQRDCKEFKVETRTITEVQSEPIYPTGRCGPVLARIPVVISQSKVHIDIESRVCFDHSVFDIYSHSRNIYLTQCKLLNMGNKRYGKIYLNGYVSENIAYAAYCMKGREYGNKKSTSADMLYKTLKVPFECVAKIEYCTSPVFKTSNGFIPVALPDKENSPEDSYFSGERLFCELDEASICESNVERKKLFSRINAGEDSFDTLTEYLVLSITFTLLQWQQVRIPGYFPNNPHSQI | not soluble |
| MTMKMSGTEIQKHFKTLKGTIAITSIEDGDGSHVVWTFDFEKVHKDIDDSHSIIDETVKYLKELDEVLLKFHE | soluble |
| MGSDKIHHHHHHMDLTHIHPEFRHILGMSDKDRMAFLDEPRWIGYAQANRLLDNLRSLMEKPVRPRMPNLLIVGDSNNGKTTVIRRFQKLHGEGYVNEDAEPVKPVIVSEAPPSADEKGLYIAILERFWTPYRATDSASKLRYQVVHLMRDCHVRILVIDEFHSLLTGTVTKQREVMNAIKLLCNELAIPIVGVGIREAVRVLHTDPQHASRFDVVTLPPWELNPEFQQLVASFERVLPLKKPSLLHQSETVSLLFAISEGNLGNLHRLLVECAVEAIKTGTEKIDKSIIEGKQWLRPTHGIRELV | not soluble |
| MRCIQLYVFYLISQLFTTGSAQKTFHYGVTGGEQFGRHEPSTRLSRFQSTPVSLNPLEDTLRVQQILKKLEDPGGLEIRRRSTSRRLHGVLTEPFGTPLVISGNSSEKKKKKPLKIKKRNGRRNPKSPEVNEYELQLAKQIEEDQLKFVEDEKNPMKYVVENGLLFRQSRYSPLARVEIPPVSGMSEISGISQRTSHSVGQTMQNPPRKRRRKQSYKLKNSKSSSESMFRTNVFRGNINRQIPAIPLPSPFSVAYGKPSFAIAREEDGKCYTNRFGYRCCDEALEALILKSYEKLRRKSNDLEDNLSKIASTLRRDSRQVFAKNLEAIVSTSNFGTSIPSDFSCKVELGPNRFVAQVFVPELGLDAKTTTRRHRIPYHELSREDLSDAADLVVSRNGIIVSKLL | not soluble |
| MADSPNRLNRAKIDSTTMKDPRVLNNLKLRELLLPKFTSLWEIQTEVTVDNRTILLTWMHLLCESFELDKSVFPLSVSILDRYLCKKQGTKKTLQKIGAACVLIGSKIRTVKPMTVSKLTYLSCDCFTNLELINQEKDILEALKWDTEAVLATDFLIPLCNALKIPEDLWPQLYEAASTTICKALIQPNIALLSPGLICAGGLLTTIETDNTNCRPWTCYLEDLSSILNFSTNTVRTVKDQVSEAFSLYDLEIL | soluble |
| MEPAAGFLSPRPFQRAAAAPAPPAGPGPPPSALRGPELEMLAGLPTSDPGRLITDPRSGRTYLKGRLLGKGGFARCYEATDTETGSAYAVKVIPQSRVAKPHQREKILNEIELHRDLQHRHIVRFSHHFEDADNIYIFLELCSRKSLAHIWKARHTLLEPEVRYYLRQILSGLKYLHQRGILHRDLKLGNFFITENMELKVGDFGLAARLEPPEQRKKTICGTPNYVAPEVLLRQGHGPEADVWSLGCVMYTLLCGSPPFETADLKETYRCIKQVHYTLPASLSLPARQLLAAILRASPRDRPSIDQILRHDFFTKGYTPDRLPISSCVTVPDLTPPNPARSLFAKVTKSLFGRKKKSKNHAQERDEVSGLVSGLMRTSVGHQDARPEAPAASGPAPVSLVETAPEDSSPRGTLASSGDGFEEGLTVATVVESALCALRNCIAFMPPAEQNPAPLAQPEPLVWVSKWVDYSNKFGFGYQLSSRRVAVLFNNGTHMALSANRKTVHYNPTSTKHFSFSVGAVPRALQPQLGILRYFASYMEQHLMKGGDLPSVEEVEVPAPPLLLQWVKTDQALLMLFSDGTVQVNFYGDHTKLILSGWEPLLVTFVARNRSACTYLASHLRQLGCSPDLRQRLRYALRLLRDRSPA | soluble |
| MGSHHHHHHMGQSVEVEILLNDAESRKRAEHKTEDGKKEKYFLFYDGETVSGKVSLSLKNPNKRLEHQGIKIEFIGQIELYYDRGNHHEFVSLVKDLARPGEITQSQAFDFEFTHVEKPYESYTGQNVKLRYFLRATISRRLNDVVKEMDIVVHTLSTYPELNSSIKMEVGIEDCLHIEFEYNKSKYHLKDVIVGKIYFLSVEIKIKHMEIDIIKRETTGTGPNVYHENDTIAKYEIMDGAPVRGSSIPIRLFLAGYELTPTMRDINKKFSVRYYLNLVLIDEEERRYFKQQEVVLWRKGDIVRKSMSHQAAIASQRFEGTTSLGEVRTPGQLSDNNSRQ | soluble |
| KGFSSEDKGEWKLKLDASGNGQAVIRFLPAKTDDALPFAILVNHGFKKNGKWYIETCSSTHGDYDSCPVCQYISKNDLYNTNKTEYSQLKRKTSYWANILVVKDPQAPDNEGKVFKYRFGKKIWDKINAMIAVDTEMGETPVDVTCPWEGANFVLKVKQVSGFSNYDESKFLNQSAIPNIDDESFQKELFEQMVDLSEMTSKDKFKSFEELNTKFNQVLGTAALGGAAAAAAS | soluble |
| AIASAADDVNKKRKTAKEVEQEECEIYQNVVFNSIVDSNSKHELVDPSLQKLGAKSRGKVTFLLEQASLELVKIDRKWEILNGDEHQQYMKRKNLNPADYRPDIVHQCVLSLLDSPLNKAGYLDLYIHTTNNVLIKVNPQTRIPRTLKRFCGLTVQLLQDLKIFGHGLNKPLLQIIQNPITNHLPDMCWKTVCSYNCENLMSPHKHAQEVLKKDMNILYVIGAMAHGKIVEEWADEELKISSFPLSASAVCHRICSAYEILYEVL | soluble |
| MPKSEPRYLTIYNQLKNQITSGTLTANEQLPTELQLAKAYNVSRITSKRALTELESQGLIYRKQGSGSFVQPTDQPKTNKQLLLVLPFPTDAGLGDYASGVSLAASAHHYQAVTMDSASFFNLSAKEIHENYAGVIYLPQDLYQEAERIYQLKLAQVPVVILDKTLPALELPVVTADNFSGGQIATDHLLQLGHQQILFYAQRNNTVLPSSVYERYFGYLTALNQQHVTPVTALADLPTLNQFSTNDWLTYLADHQITAIVVENDLTAIKLMNTLRKVDPKIWQRLSIVGFDNIQAASLTYPSLTTVAQDFKGMGTKAVSLLLKTPVQPTTVRLPVQLIQRDSTQPFQPISKEK | not soluble |
